In this series the target is Glutathione S-transferase (GST) (Schistosoma japonicum, UniProt P08515 P08515:2-218). The series can be described thus: SPR; Kd fitted with BIA Evolution 3.1 but value only in figure; RNA immobilized via poly(A)/poly(dT). The settings on record: chain copies: 2 inferred. An excerpt: Synthetic biotinylated polydT (Hokkaido System Science) is allowed to bind to the surface of an SA BIACORE chip (Biacore). The single-stranded RNA molecules (RNA adaptor molecules) comprising polyA (Aₙ) added on the 5′-terminal side are annealed with the synthetic biotinylated polydT immobilized on the chip surface. As a result, the single-stranded RNA molecules (RNA adaptor molecules) are immobilized thereon via the hybrid bonding between the polydT and the polyA (Aₙ).
Glutathione S-transferase (GST), sequence (P08515 2-218, one chain of several): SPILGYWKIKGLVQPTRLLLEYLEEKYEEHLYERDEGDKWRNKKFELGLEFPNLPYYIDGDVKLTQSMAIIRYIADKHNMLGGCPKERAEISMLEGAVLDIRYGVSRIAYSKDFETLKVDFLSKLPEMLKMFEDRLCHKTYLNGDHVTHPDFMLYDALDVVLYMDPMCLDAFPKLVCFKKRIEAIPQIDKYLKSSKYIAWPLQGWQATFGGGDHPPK
This chip on which the single-stranded RNA molecules (RNA adaptor molecules) are immobilized is utilized to measure the process of formation of complexes of the single-stranded RNA molecules (RNA adaptor molecules) and GST proteins and the process of dissociation thereof by use of a surface plasmon resonance detection apparatus. The results are analyzed to determine the equilibrium dissociation constants of the complexes.
Parameter fitting is conducted by use of BIA Evolution ver. 3.1 for the concentrations of the GST protein in the poured GST protein solutions and the time-dependent changes in signal intensity measured in this process, to thereby determine equilibrium dissociation constant KD.
Background: SPR reads the build-up and loss of mass on a sensor chip optically.

These results are taken from patent US20100036106, “High-Affinity RNA Aptamer Molecule Against Glutathione-S-Transferase Protein” (NEC Soft, Ltd., published 2010).

B1: No. 5 clone RNA aptamer with 5' poly(A) (ssRNA)
RNA: GGUAGAUACGAUGGACUAACUGCGCAAAUUACUCGUAUUAGCCGACAUGACGCGCAGCCAA
Regarding B1, the binding result was “binds”.

B2: No. 26 clone RNA aptamer with 5' poly(A) (ssRNA)
RNA: GGUAGAUACGAUGGAUACCGAAAAAUUAGUGUCGUUGACUGCAACAUGACGCGCAGCCAA
Turning to B2, the binding result is on record as “binds”.

B3: No. 3 clone RNA aptamer with 5' poly(A) (ssRNA)
RNA: GGUAGAUACGAUGGAUGGUUGUGUAAAGGUGGUCGUAUCCGCCGACAUGACGCGCAGCCAA
In the case of B3, the binding result was “binds”.
